Test results as given in patent US20170283458A1, “COLLAGEN-BINDING SYNTHETIC PEPTIDOGLYCANS FOR WOUND HEALING” (Symic Biomedical, Inc., priority 2009, published 2017).
Ends that are not written are not given here.

Experiments:
collagen = target: T1, collagen (Bos taurus, UniProt P02453+P02465); assay: Fibrillogenesis turbidity assay (absorbance at 313 nm); assay type: biochemical; conditions: 1:1 collagen:additive molar ratio, vs collagen alone
T1 construct: purchased Inamed, Freemont, Calif; Nutragen
T1 sequence (P02453 162-1217 limits assumed): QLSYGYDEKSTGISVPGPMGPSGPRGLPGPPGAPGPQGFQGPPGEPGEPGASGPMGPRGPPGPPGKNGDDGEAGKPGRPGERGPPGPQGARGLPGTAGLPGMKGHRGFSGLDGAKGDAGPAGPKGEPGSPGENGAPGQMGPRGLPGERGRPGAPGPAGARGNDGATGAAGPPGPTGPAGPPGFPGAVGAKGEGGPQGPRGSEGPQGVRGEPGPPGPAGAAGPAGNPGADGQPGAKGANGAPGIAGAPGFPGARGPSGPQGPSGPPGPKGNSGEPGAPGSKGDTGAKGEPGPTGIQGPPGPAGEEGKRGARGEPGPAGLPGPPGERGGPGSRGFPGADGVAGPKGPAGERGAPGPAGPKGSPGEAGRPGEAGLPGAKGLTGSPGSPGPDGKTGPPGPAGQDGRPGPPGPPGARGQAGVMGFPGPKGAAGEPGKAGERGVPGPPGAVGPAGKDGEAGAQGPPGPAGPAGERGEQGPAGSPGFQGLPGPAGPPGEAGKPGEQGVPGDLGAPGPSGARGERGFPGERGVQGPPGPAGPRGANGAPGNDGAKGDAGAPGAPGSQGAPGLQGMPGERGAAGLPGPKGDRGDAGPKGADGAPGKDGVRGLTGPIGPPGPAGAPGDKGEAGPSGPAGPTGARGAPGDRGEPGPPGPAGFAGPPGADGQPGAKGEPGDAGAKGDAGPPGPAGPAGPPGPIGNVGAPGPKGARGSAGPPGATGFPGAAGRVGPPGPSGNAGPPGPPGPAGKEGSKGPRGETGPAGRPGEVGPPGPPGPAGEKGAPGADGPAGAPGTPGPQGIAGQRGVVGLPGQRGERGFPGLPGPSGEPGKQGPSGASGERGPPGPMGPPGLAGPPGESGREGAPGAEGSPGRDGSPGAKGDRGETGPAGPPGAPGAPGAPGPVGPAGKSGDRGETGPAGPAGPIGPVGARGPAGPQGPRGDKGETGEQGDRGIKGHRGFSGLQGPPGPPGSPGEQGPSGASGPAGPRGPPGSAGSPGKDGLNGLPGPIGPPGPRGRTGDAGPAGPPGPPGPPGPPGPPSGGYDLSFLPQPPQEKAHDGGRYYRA
T1 sequence (P02465 80-1117 limits assumed): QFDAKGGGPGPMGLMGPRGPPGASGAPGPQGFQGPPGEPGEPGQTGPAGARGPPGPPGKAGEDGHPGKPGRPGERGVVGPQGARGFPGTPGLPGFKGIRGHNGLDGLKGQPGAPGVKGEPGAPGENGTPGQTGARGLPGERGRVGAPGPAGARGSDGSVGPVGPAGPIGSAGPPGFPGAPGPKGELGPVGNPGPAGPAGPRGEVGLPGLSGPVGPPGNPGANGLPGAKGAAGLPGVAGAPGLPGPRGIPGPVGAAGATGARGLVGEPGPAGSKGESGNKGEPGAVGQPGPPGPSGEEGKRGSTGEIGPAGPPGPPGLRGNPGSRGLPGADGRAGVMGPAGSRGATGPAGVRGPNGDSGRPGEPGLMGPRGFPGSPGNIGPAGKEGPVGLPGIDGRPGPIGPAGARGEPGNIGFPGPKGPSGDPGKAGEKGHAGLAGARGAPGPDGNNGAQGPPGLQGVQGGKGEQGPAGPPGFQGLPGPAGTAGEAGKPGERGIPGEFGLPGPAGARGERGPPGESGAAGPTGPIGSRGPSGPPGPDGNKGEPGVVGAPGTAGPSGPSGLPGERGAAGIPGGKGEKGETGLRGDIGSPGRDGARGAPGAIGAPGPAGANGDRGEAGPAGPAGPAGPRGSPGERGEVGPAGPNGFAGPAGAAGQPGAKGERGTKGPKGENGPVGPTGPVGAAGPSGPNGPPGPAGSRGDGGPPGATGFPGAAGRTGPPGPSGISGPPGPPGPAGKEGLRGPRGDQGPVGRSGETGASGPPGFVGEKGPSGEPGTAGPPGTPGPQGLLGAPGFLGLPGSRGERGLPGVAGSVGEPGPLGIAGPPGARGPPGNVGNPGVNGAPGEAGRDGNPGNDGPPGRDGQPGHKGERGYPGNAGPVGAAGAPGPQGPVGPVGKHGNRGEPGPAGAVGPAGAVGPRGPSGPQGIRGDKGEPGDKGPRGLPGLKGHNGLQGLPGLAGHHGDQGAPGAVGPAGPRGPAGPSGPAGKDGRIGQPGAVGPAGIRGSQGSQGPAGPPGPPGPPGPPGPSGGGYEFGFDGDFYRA
Description: (§1) Gels were made with Nutragen collagen (Inamed, Freemont, Calif.) at a final concentration of 4 mg/mL collagen. Nutragen stock is 6.4 mg/mL in 10 mM HCl. Gel preparation was performed on ice, and fresh samples were made before each test. The collagen solution was adjusted to physiologic pH and salt concentration, by adding appropriate volumes of 10×PBS (phosphate buffered saline), 1×PBS, and 1M NaOH. For most experiments, samples of DS, decorin, DS-SILY, or DS-Dc13 were added at a 10:1 collagen:treatment molar ratio by a final 1×PBS addition (equal volumes across treatments) in which the test samples were dissolved at appropriate concentrations. In this way, samples are constantly kept at pH 7.4 and physiologic salt concentration. Collagen-alone samples received a 1×PBS addition with no sample dissolved. Fibrillogenesis will be induced by incubating neutralized collagen solutions at 37° C. overnight in a humidified chamber to avoid dehydration. Gel solutions with collagen:treatment molar ratios of other than 10:1 were prepared similarly.
Collagen fibrillogenesis was monitored by measuring turbidity related absorbance at 313 nm providing information on rate of fibrillogenesis and fibril diameter. Gel solutions were prepared as described in EXAMPLE 16 (4 mg/mL collagen, 10:1 collagen:treatment, unless otherwise indicated) and 50 uL/well were added at 4° C. to a 384-well plate. The plate was kept at 4° C. for 4 hours before initiating fibril formation. A SpectraMax M5 at 37° C. was used to measure absorbance at 313 nm at 30 s intervals for 6 hours.
A fibrillogenesis assay as described for DS-SILY, EXAMPLE 19, performed with the conjugate DS-Dc13.

[1] = system: Human aortic smooth muscle cells; assay: Collagen remodeling: hydroxyproline content in medium of cell-seeded collagen gels; assay type: cell-based; conditions: vs collagen alone; cultures up to 30 days
Description: Following a method by Grassl, et al. (Grassl, et al., Journal of Biomedical Materials Research 2002, 60, (4), 607-612), which is herein incorporated in its entirety, collagen gels with or without synthetic PG mimics were formed as described in EXAMPLE 16. Human aortic smooth muscle cells (Cascade Biologics, Portland, Oreg.) were seeded within collagen gels by adding 4×10^6 cells/mL to the neutralized collagen solution prior to incubation. The cell-collagen solutions were pipetted into an 8-well Lab-Tek chamber slide and incubated in a humidified 37° C. and 5% CO2 incubator. After gelation, the cell-collagen gels will be covered with 1 mL Medium 231 as prescribed by Cascade. Every 3-4 days, the medium was removed from the samples and the hydroxyproline content measured by a standard hydroxyproline assay (Reddy, 1996).
To measure degraded collagen in the supernatant medium, the sample was lyophilized, the sample hydrolyzed in 2M NaOH at 120° C. for 20 min. After cooling, free hydroxyproline was oxidized by adding chloramine-T (Sigma) and reacting for 25 min at room temperature. Ehrlich's aldehyde reagent (Sigma) was added and allowed to react for 20 min at 65° C. and followed by reading the absorbance at 550 nm on an M-5 spectrophotometer (Molecular Devices). […] Cultures were incubated for up to 30 days and three samples of each treatment measured. […]

collagen type III = target: T2, collagen type III (Homo sapiens, UniProt P02461); assay: Viscoelastic characterization of collagen III containing gels; assay type: biochemical; conditions: 1.5 mg/mL collagen (90% collagen III); 1:1 and 5:1 molar ratios
T2 construct: purchased Millipore
T2 sequence (P02461 154-1221 limits assumed): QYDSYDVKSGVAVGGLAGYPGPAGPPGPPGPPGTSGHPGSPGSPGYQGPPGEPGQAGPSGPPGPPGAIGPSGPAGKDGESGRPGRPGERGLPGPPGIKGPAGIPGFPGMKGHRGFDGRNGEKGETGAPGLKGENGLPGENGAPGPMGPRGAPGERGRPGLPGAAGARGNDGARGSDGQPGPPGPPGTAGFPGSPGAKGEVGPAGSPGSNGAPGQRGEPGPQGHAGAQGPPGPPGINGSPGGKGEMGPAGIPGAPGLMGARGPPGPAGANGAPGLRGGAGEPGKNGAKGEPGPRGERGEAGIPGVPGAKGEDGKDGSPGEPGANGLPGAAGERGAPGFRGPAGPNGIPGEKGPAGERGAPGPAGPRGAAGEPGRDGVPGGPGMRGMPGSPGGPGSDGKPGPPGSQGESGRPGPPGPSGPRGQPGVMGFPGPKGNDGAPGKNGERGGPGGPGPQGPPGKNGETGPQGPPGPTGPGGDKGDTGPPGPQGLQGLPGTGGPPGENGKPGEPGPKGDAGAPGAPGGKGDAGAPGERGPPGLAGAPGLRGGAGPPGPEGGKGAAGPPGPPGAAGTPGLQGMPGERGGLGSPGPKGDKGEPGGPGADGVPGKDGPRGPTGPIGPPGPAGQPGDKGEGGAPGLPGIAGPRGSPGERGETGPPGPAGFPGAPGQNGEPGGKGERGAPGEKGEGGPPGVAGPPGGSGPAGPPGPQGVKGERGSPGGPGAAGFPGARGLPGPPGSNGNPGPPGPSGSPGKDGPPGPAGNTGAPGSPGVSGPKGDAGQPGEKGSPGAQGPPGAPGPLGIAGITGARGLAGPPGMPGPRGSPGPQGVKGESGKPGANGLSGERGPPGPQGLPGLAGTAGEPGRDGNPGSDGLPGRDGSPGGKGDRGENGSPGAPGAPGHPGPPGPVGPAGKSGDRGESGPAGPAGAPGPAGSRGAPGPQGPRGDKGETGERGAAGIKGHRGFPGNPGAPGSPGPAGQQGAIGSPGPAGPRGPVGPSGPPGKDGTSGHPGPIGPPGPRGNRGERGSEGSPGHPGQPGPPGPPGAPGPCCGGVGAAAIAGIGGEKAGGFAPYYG
Description: Gels containing type III collagen were prepared as in EXAMPLE 16 with the following modifications: treated and untreated gel solutions were prepared using a collagen concentration of 1.5 mg/mL (90% collagen III (Millipore), 10% collagen I), 200 μL samples were pipetted onto 20 mm diameter wettable surfaces of hydrophobic printed slides. These solutions were allowed to gel at 37° C. for 24 hours. Gels were formed from collagen alone, collagen treated with dermatan sulfate (1:1 and 5:1 molar ratio), and collagen treated with the collagen III-binding peptides alone (GSIT and KELN, 5:1 molar ratio) served as controls.

collagen III = target: T3, collagen III (Homo sapiens, UniProt P02461); assay: Cryo-SEM measurements on collagen III, void space; assay type: biochemical; conditions: 1 mg/mL collagen (90% collagen III), 1:1 collagen:peptidoglycan
T3 construct: purchased Millipore
T3 sequence (P02461 154-1221 limits assumed): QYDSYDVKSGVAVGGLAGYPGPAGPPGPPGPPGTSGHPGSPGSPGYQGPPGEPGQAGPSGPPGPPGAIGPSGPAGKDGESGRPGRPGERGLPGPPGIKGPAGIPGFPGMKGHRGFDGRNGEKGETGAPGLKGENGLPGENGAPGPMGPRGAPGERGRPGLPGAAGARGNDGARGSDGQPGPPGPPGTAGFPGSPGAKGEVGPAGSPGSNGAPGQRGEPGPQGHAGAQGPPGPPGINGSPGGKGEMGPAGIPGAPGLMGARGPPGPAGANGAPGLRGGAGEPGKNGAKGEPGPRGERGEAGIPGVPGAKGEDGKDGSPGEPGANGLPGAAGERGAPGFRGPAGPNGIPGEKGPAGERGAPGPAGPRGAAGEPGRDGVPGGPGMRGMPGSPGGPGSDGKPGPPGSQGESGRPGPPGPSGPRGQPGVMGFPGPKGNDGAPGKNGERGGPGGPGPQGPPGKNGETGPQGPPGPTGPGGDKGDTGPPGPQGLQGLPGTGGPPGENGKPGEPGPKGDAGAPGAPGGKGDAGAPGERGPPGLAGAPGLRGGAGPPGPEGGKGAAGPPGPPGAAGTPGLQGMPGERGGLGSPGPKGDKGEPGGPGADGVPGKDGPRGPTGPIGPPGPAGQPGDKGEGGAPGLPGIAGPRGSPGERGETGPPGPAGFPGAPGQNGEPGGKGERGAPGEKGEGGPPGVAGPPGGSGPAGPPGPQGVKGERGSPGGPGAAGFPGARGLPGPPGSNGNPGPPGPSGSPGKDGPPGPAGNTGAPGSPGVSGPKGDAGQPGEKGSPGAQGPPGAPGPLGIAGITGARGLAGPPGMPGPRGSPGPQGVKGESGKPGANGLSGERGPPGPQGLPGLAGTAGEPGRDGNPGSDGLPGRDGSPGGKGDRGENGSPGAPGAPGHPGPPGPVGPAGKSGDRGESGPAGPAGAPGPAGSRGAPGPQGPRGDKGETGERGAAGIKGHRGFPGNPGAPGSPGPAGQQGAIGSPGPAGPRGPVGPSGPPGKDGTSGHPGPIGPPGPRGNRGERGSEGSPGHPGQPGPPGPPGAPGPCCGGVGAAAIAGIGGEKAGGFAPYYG
Description: Gels for cryo-SEM were formed, as in EXAMPLE 16, directly on the SEM stage and incubated at 37° C. overnight with the following modifications. The collagen concentration was 1 mg/mL (90% collagen III, 10% collagen I). The collagen:DS ratio was 1:1 and the collagen:peptidoglycan ratio was 1:1. The images were recorded as in EXAMPLE 21. The ratio of void volume to fibril volume was measured using a variation of the method in EXAMPLE 21.

collagen I = target: T4, collagen I (Bos taurus, UniProt P02453+P02465); assay: Cryo-SEM measurements on collagen I, fibril diameter; assay type: biochemical; conditions: 4 mg/mL collagen, 10:1 collagen:treatment, cryo-SEM 20,000×
T4 construct: purchased Inamed, Freemont, Calif; Nutragen
T4 sequence (P02453 162-1217 limits assumed): as the sequence (P02453 162-1217 limits assumed) above
T4 sequence (P02465 80-1117 limits assumed): as the sequence (P02465 80-1117 limits assumed) above
Description: as §1
Gels for cryo-SEM were formed, as in EXAMPLE 16, directly on the SEM stage and incubated at 37° C. overnight. The stages were then secured in a cryo-holder and plunged into liquid nitrogen slush. Samples were then transferred to a Gatan Alto 2500 pre-chamber cooled to −170° C. under vacuum. A free-break surface was created with a cooled scalpel, and each sample evaporated under sublimation conditions for 20 min. The sample was coated by platinum sputter coating for 120 s. Samples were transferred to the cryo-stage at −130° C. and regions with similar orientation were imaged for comparison across treatments. Analysis of the images was performed to determine the fibril diameter distribution, presented in histograms adjacent the corresponding image in FIG. 14, and average fibril diameter, FIG. 17 an 18;. Fibril diameter was calculated using ImageJ software (NIH) measuring individual fibrils by hand (drawing a line across fibrils and measuring its length after properly setting the scale). At least 45 independent fibril measurement were recorded for average fibril diameter calculations.

Human dermal fibroblasts = assay: TGF-β1 production by human dermal fibroblasts (ELISA); assay type: cell-based; conditions: 1.4 μM treatment, 48 hours
Description: Human dermal fibroblasts (Cascade Biologics) were seeded onto 96-well tissue culture polystyrene plates at a seeding density of 1.83×10^3 cells/well. Cells adhered overnight and cell medium was aspirated. 100 μL/well of cell medium containing a final concentration of 1.4 μM treatment delivered from a concentrated solution of treatment in 1×PBS was added to the cells. After 48 hours, cell medium was removed and frozen at −80 C until further testing. TGF-β1 was measured by ELISA using a kit and protocol from R&D Systems.

[2] = system: Human coronary artery smooth muscle cells (HCA SMC); assay: Gel compaction by smooth muscle cells in collagen gels; assay type: cell-based; conditions: Days 3 and 5
Description: Human coronary artery smooth muscle cells (HCA SMC) (Cascade Biologics) were cultured in growth medium (Medium 231 supplemented with smooth muscle growth factor). Cells from passage 3 were used for all experiments. Differentiation medium (Medium 231 supplemented with 1% FBS and 1× pen/strep) was used for all experiments unless otherwise noted.
Collagen gels were prepared with each additive as described with the exception that the 1×PBS example addition was omitted to accommodate the addition of cells in media. After incubating on ice for 30 min, HCA SMCs in differentiation medium were added to the gel solutions to a final concentration of 1×10^6 cells/mL. Gels were formed in quadruplicate in 48-well non-tissue culture treated plates (Costar) for 6 hrs before adding 500 μL/well differentiation medium. Gels were freed from the well edges after 24 hrs. Medium was changed every 2-3 days and images for compaction were taken at the same time points using a Gel Doc System (Bio-Rad). The cross-sectional area of circular gels correlating to degree of compaction was determined using ImageJ software (NIH). Gels containing no cells were used as a negative control and cells in collagen gels absent additive were used as a positive control. […] By day 10 all gels had compacted to approximately 10% of the original gel area, and differences between additives were small.

With SYIRIADTNITGC [Dc13] the effect on fibrillogenesis (collagen) was “little effect on fibrillogenesis compared to collagen alone” and the “collagen degradation measured by hydroxyproline content in cell medium” value [1] was “greater collagen degradation compared to collagen alone”.

For “DS-GSIT: dermatan sulfate conjugated to GSIT peptide GSITTIDVPWNVGC (also: dermatan sulfate conjugate, site not given here)”, the “viscoelastic properties of gels formed with collagen type III” value (collagen type III) was “can influence the viscoelastic properties of gels formed with collagen type III” and the void space (collagen III) was “decrease void space (increase fibril diameter and branching)”.

For “DS-KELN: dermatan sulfate conjugated to KELN peptide KELNLVYTGC (also: dermatan sulfate conjugate, site not given here)”, the “viscoelastic properties of gels formed with collagen type III” value (collagen type III) was “can influence the viscoelastic properties of gels formed with collagen type III” and the void space (collagen III) was “decrease void space (increase fibril diameter and branching)”.

B1: decorin: proteoglycan known to influence collagen fibrillogenesis (protein, UniProt P07585 31-359, looked up)
Decorin: DEASGIGPEVPDDRDFEPSLGPVCPFRCQCHLRVVQCSDLGLDKVPKDLPPDTTLLDLQNNKITEIKDGDFKNLKNLHALILVNNKISKVSPGAFTPLVKLERLYLSKNQLKELPEKMPKTLQELRAHENEITKVRKVTFNGLNQMIVIELGTNPLKSSGIENGAFQGMKKLSYIRIADTNITSIPQGLPPSLTELHLDGNKISRVDAASLKGLNNLAKLGLSFNSISAVDNGSLANTPHLRELHLDNNKLTRVPGGLAEHKYIQVVYLHNNNISVVGSSDFCPPGHNTKKASYSGVSLFSNPVQYWEIQPSTFRCVYVRSAIQLGNYK
For B1, the average fibril diameter (collagen I) was “significant decrease in average fibril diameter”, the “TGF-β1 in cell medium” value (Human dermal fibroblasts) was “significantly decreased TGF-β1” and the “gel compaction at early time points” value [2] was “significantly compacted more than gels made of collagen alone or collagen with dermatan sulfate”.
